One assay addresses T1, S34A.
T1 sequence (peptide, N-terminal biotin (p-0192)): NNFVPTNVGAKAF
The assay can be described thus: Biacore alanine scan, 25 °C, N-biotinylated fragment on SA chip, G1 Fab titrated; against the wild-type 25-37 fragment.

The target in the next assay is T2, K35A.
T2 sequence (peptide, N-terminal biotin (p-0192)): NNFVPTNVGSAAF
The assay is described as above.

In a further assay the target is T3, V32A.
T3 sequence (peptide, N-terminal biotin (p-0192)): NNFVPTNAGSKAF
The description is as above.

In a further assay the target is T4, F37A (ends and bridges not checked).
T4 peptide: Biotin-NNFVPTNVGSKAA
The assay is described as above. The method, then:
(§1) Interaction analysis was conducted at 25° C. on a Biacore 3000™ system equipped with streptavidin-coated (SA) sensor chips (Biacore AB, Uppsala, Sweden) using a standard Biacore running buffer (HBS-P). […] Each amino acid between position 27-37 was then mutated individually to alanine and expressed the fold loss in affinity compared to the wild-type fragment. […] Fab fragments were titrated over the chip using 1 μM as the top concentration of a two-fold dilution series. Association and dissociation phases were monitored at 100 μl/min for 1 minute and 5 minutes respectively. Surfaces were regenerated with a mixture of 35% ethanol+25mM NaOH+0.5M NaCl.

The next assay has as its target T5, G33A (ends and bridges not checked).
T5 peptide: Biotin-NNFVPTNVASKAF
The description is as above. The method, then: as §1

Assay [1] deals with T6, rat α-CGRP (rat, not fully specified; C-terminal amide (CONH2) as printed; N-biotinylated in the Biacore assays).
T6 construct: also called α-Rat; α-rat
T6 peptide: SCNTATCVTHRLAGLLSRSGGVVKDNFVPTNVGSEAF
As to the kind of experiment: Biacore, N-biotin-CGRP on chip, 37 C. A general note: Surface plasmon resonance follows binding to a sensor surface in real time, without labels.

The next assay addresses T7, human β-CGRP (human, not fully specified; C-terminal amide (CONH2) as printed; N-biotin on chip).
T7 construct: also called β-human
T7 peptide: T6 peptide with S1A, V22M, D25S, E35K
As to the kind of experiment: Biacore, N-biotin-CGRP on chip, 37 C.

For a further assay, the target named is T8, rat β-CGRP (rat, not fully specified; C-terminal amide (CONH2) as printed; N-biotin on chip).
T8 construct: also called β-rat
T8 peptide: T6 peptide with E35K
As to the kind of experiment: Biacore, N-biotin-CGRP on chip, 37 C.

Assay [2] has as its target T9, human α-CGRP (human, not fully specified; C-terminal amide (CONH2) as printed; N-biotinylated in the Biacore assays).
T9 construct: Full-length 37-residue peptide; also called α-Hu; α-human
T9 peptide: T6 peptide with S1A, N3D, D25N, E35K
As to the kind of experiment: Biacore, N-biotin-CGRP on chip, 37 C.

The target in assay [3] is T9, human α-CGRP. The assay can be described thus: Biacore, ratio of KD at 25 C, reference rat α-CGRP.
Assay [4] deals with T6, rat α-CGRP. As to the kind of experiment: Biacore, N-biotin-CGRP on chip, 25 C.
Assay [5] deals with T9, human α-CGRP. As to the kind of experiment: Biacore, N-biotin-CGRP on chip, 25 C.

Substitutions are numbered along the chain they refer to. Where no end group is shown, it is not given here. The star is where a group is joined. Biotin = O=C1N[C@H]2[C@H](CS[C@H]2CCCCC(=O)*)N1

B1: Fab fragment of antibody G1 (Fab, V domains shown)
VH: EVQLVESGGGLVQPGGSLRLSCAASGFTFSNYWISWVRQAPGKGLEWVAEIRSESDASATHYAEAVKGRFTISRDNAKNSLYLQMNSLRAEDTAVYYCLAYFDYGLAIQNYWGQGTLVTVSS
VL: EIVLTQSPATLSLSPGERATLSCKASKRVTTYVSWYQQKPGQAPRLLIYGASNRYLGIPARFSGSGSGTDFTLTISSLEPEDFAVYYCSQSYNYPYTFGQGTKLEIK
notes: also called Purified Fab fragments of antibody G1
In the case of B1, the Fold loss in affinity was determined as 10.9 fold with S34A; 8.1 fold in the assay with K35A; 6.1 fold with V32A; 339 fold with F37A; 504 fold with G33A.

B2: antibody G1 (antibody, human IgG2, kappa, V domains shown)
VH: B1 VH
VL: EIVLTQSPATLSLSPGERATLSCKASKRVTTYVSWYQQKPGQAPRLLIYGASNRYLGIPARFSGSGSGTDFTLTISSLEPEDFAVYYCSQSYNYPYTFGQGTKLEIKR
notes: Humanized IgG2 delta-a monoclonal derived from muMAb7E9; heavy chain entry includes the modified IgG2 constant region; also called anti-CGRP antibody G1
Turning to B2, the “T1/2” value was 0.48 h in the assay with rat α-CGRP [1]; 2.76 h with human β-CGRP; 2.45 h with rat β-CGRP; 5.3 h with human α-CGRP [2]; 3.12 h with rat α-CGRP [4]; 24.7 h with human α-CGRP [5]. Also, the “fold more potent than for rat α-CGRP” value with human α-CGRP [3] was found to be 40 fold.

For the origin of these results see US20110257371A1 (Teva, published 2011).
